Results on 2 molecules are retold here after patent US20150276749A1 (KONICA MINOLTA, published 2015).

The target of assay [1] is soluble-type human DSG3-mouse IgG2aFc fusion protein (human; mouse) (UniProt P32926). Briefly: sandwich ELISA, luminescence over blank; immobilized MAB1720, detection DF151; antigen 5000 pg/mL.
Assay [2] has the same target. Briefly: sandwich ELISA, luminescence over blank; immobilized MAB1720, detection DF151; antigen 25000 pg/mL.
For assay [3] the target is unchanged. Briefly: SPFS sandwich; immobilized MAB1720, detection DF151; antigen 1,000 pg/mL (µg/mL in the source).
For assay [4] the target is unchanged. Briefly: sandwich ELISA, antigen in PBS(-); immobilized MAB1720, detection biotinylated DF366m.
The target is the same in assay [5]. Briefly: sandwich ELISA, luminescence over blank; immobilized MAB1720, detection DF151; antigen 40 pg/mL.
Assay [6] has the same target. Briefly: sandwich ELISA, luminescence over blank; immobilized MAB1720, detection DF151; antigen 10 pg/mL.
Assay [7] has the same target. Briefly: sandwich ELISA, antigen in PBS(-); immobilized MAB1720, detection biotinylated D219-3.
Assay [8] shares this target. Briefly: sandwich ELISA, antigen added to human serum; immobilized MAB1720, detection biotinylated DF151.
For assay [9] the target is unchanged. The assay is described as follows: sandwich ELISA, antigen in PBS(-); immobilized MAB1720, detection biotinylated MAB1720.
The target is the same in assay [10]. The assay is described as follows: sandwich ELISA, luminescence over blank; immobilized MAB1720, detection DF151; antigen 1000 pg/mL.
For assay [11] the target is unchanged. The assay is described as follows: sandwich ELISA, luminescence over blank; immobilized MAB1720, detection DF151; antigen 200 pg/mL.
For assay [12] the target is unchanged. Briefly: sandwich ELISA, antigen in PBS(-); immobilized MAB1720, detection biotinylated DF151.
For assay [13] the target is unchanged. The assay is described as follows: sandwich ELISA, luminescence over blank; immobilized MAB1720, detection DF151; antigen 1 pg/mL.
Assay [14] addresses T1, soluble-type human DSG3-mouse IgG2aFc fusion protein (human; mouse, UniProt P32926 50-616).
T1 construct: also called human desmoglein 3; desmoglein 3 standard; not shown: mouse IgG2a Fc, printed 'mouse IgG2aFc' and 'mouse IgG2 constant region'
T1 sequence: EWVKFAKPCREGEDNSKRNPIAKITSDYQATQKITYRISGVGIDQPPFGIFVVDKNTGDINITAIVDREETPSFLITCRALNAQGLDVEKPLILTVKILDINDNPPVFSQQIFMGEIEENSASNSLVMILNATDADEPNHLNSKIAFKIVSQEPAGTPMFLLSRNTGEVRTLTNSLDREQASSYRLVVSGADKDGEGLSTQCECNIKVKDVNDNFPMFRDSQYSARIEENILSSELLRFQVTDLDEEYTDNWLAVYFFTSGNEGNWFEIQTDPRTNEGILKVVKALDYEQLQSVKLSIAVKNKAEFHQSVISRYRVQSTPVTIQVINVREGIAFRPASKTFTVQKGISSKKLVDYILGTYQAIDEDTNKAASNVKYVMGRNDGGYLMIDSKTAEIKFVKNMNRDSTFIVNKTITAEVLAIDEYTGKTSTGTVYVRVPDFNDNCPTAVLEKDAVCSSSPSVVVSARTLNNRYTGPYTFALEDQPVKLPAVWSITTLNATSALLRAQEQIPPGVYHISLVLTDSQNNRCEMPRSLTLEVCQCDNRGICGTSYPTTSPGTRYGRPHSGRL
Briefly: sandwich ELISA, luminescence over blank; immobilized DF366m, detection MAB1720; antigen 40 pg/mL. On the procedure: (§1) Subsequently, the antigen solutions having the above-described concentrations were each added to the plate in an amount of 50 μL/well, and the plate was incubated at room temperature for 1 hour. Then, the antigen solution was removed, and the plate was washed with 0.05% Tween 20-PBS three times. Thereafter, the 1-μg/mL biotinylated antibody solution was added in an amount of 50 μL/well, and the plate was incubated at room temperature for 1 hour.
(§2) Then, after removing the streptavidin-HRP solution and washing the plate with 0.05% Tween 20-PBS three times, a substrate solution (SuperSignal ELISA Femto Maximum Sensitivity Substrate (registered trademark); Pierce Biotechnology, Inc.) was added in an amount of 100 μL/well. One minute thereafter, the luminescence intensity was measured using a luminometer, Fluoroskan Ascent FL (trade name, Thermo Electron Corporation).
(§3) The numerical values shown in Table 1 represent the minimum values of the antigen solution concentration having an S/N ratio of higher than 2 (hereinafter, referred to as “detection limit concentration”) and the unit of the numerical values is pg/mL. The S/N ratio was determined by dividing the luminescence intensity at the respective antigen solution concentrations ([…]) by the luminescence intensity of an antigen-free blank antigen solution (0 μg/mL).

Assay [15] has as its target T1, soluble-type human DSG3-mouse IgG2aFc …. Briefly: sandwich ELISA, luminescence over blank; immobilized DF366m, detection MAB1720; antigen 5000 pg/mL. On the procedure:
as §1, §2, §3

Assay [16] shares this target. Briefly: sandwich ELISA, luminescence over blank; immobilized DF366m, detection MAB1720; antigen 1000 pg/mL. As to the method:
as §1, §2, §3

For assay [17] the target is unchanged. The assay is described as follows: sandwich ELISA, luminescence over blank; immobilized DF366m, detection DF151; antigen 25000 pg/mL. As to the method:
as §1, §2, §3

Assay [18] has the same target. Briefly: sandwich ELISA, luminescence over blank; immobilized DF366m, detection DF151; antigen 1 pg/mL. On the procedure:
as §1, §2
(§4) The numerical values shown in Table 1 represent the minimum values of the antigen solution concentration having an S/N ratio of higher than 2 (hereinafter, referred to as “detection limit concentration”) and the unit of the numerical values is pg/mL. […]

Assay [19] shares this target. Briefly: sandwich ELISA, luminescence over blank; immobilized DF366m, detection MAB1720; antigen 25000 pg/mL. On the procedure: as §1, §2, §3
Assay [20] shares this target. The assay is described as follows: sandwich ELISA, luminescence over blank; immobilized DF366m, detection MAB1720; antigen 1 pg/mL. As to the method: as §1, §2, §3
The target is the same in assay [21]. The assay is described as follows: sandwich ELISA, luminescence over blank; immobilized DF366m, detection DF151; antigen 10 pg/mL. On the procedure:
as §1, §2, §4

Assay [22] has the same target. The assay is described as follows: sandwich ELISA, luminescence over blank; immobilized DF366m, detection DF151; antigen 5000 pg/mL. On the procedure: as §1, §2, §3
Assay [23] shares this target. Briefly: sandwich ELISA, luminescence over blank; immobilized DF366m, detection DF151; antigen 40 pg/mL. On the procedure:
as §1, §2, §3

Assay [24] shares this target. The assay is described as follows: SPFS sandwich; immobilized DF366m, detection DF151; antigen 1,000 pg/mL (µg/mL in the source). As to the method: (§5) Once again, a Tris-buffered saline (TBS) containing 0.05% by mass of Tween 20 was fed and circulated in the flow path for 10 minutes to wash the flow path. Then, with the flow path being filled with PBS buffer (pH 7.4), the assay area was irradiated with laser light (640 nm, 40 μW) from the back side of the metal thin films, and the fluorescence intensity was measured using a photomultiplier tube (PMT) arranged above the assay area. The thus measured value was defined as “signal” (S) at a desmoglein 3 concentration of 100 μg/mL.
On another front, the fluorescence intensity was also measured by the same procedures as described above, except that a PBS solution containing no desmoglein 3 (0 μg/mL) was fed in place of the PBS solution containing 100 μg/mL of desmoglein 3. The thus measured value was defined as “noise” (N).
(§6) Further, the fluorescence intensity was measured by the same procedures as described above, except that the desmoglein 3 concentration of the fed PBS solution was changed to 10,000 μg/mL, 5,000 μg/mL, 1,000 μg/mL, 200 μg/mL, 50 μg/mL, 10 μg/mL, 3.16 μg/mL, 1 μg/mL, 0.316 μg/mL, 0.1 μg/mL and 0.031 μg/mL. The thus measured values were each defined as “signal” (S) at the respective concentrations.

The target is the same in assay [25]. The assay is described as follows: sandwich ELISA, luminescence over blank; immobilized DF366m, detection DF151; antigen 1000 pg/mL. On the procedure:
as §1, §2, §3

Assay [26] has the same target. Briefly: sandwich ELISA, luminescence over blank; immobilized DF366m, detection MAB1720; antigen 200 pg/mL. As to the method:
as §1, §2, §3

Assay [27] has the same target. Briefly: SPFS sandwich; immobilized DF366 (so in the source), detection MAB1720; antigen 1,000 pg/mL (µg/mL in the source). On the procedure:
as §5, §6
In addition, when the antibody combination was variously changed in the same manner as in Example 1, it was confirmed that plots similar to the one shown in FIG. 6 can be obtained.

For assay [28] the target is unchanged. The assay is described as follows: sandwich ELISA, luminescence over blank; immobilized DF366m, detection MAB1720; antigen 10 pg/mL. On the procedure:
as §1, §2, §4

The target is the same in assay [29]. The assay is described as follows: sandwich ELISA, luminescence over blank; immobilized DF366m, detection DF151; antigen 200 pg/mL. As to the method:
as §1, §2, §3

On to “MAB1720 antibody (R&D Systems, Inc., Catalog No.: MAB1720)”, for which the S/N ratio worked out at 11.4 in assay [1]; 53 in assay [2]; 34.5 in assay [3]; 1 in [5]; 1.1 in assay [6]; 2.8 in [10]. For the same molecule, the S/N ratio came to 1.3 in [11] and 0.9 in [13]. Also, the detection limit concentration (lowest antigen concentration with S/N > 2) in [4] worked out at 5000 pg/mL; in assay [7], 5000 pg/mL; in [9] it was 5000 pg/mL; in assay [12] it was 1000 pg/mL. For the same molecule, the detection limit concentration in assay [8] is 1000 pg/mL.

B1: DF366m (DF366m[I] antibody) (antibody, mouse IgG2a, kappa, V domains shown)
VH: EVQLQQSGPELVKPGASVKISCKASGYTFTDYNMDWVKQSHGESLEWIGYIYPNNGGSGYNQKFKSKATLTVDKSSSTAYMELHSLTSEDSAVYYCARRDSYYGFDMAWFAYWGQGTLVTVSA
VL: DIQMTQSPASLSASVGETVTITCRPSENIYNNLAWYQQKQGKSPQLLVYVATNLAEGVPSRFSGSGSGTRFSLKINSLQPEDFGKYYCQHSYGTPWTFGGGTKLEIKR
notes: Complete antibody; Plain when immobilized; biotinylated (Biotin-AC5-Osu) when used as detection antibody; also called DF366m antibody
Consider B1, for which the S/N ratio is 0.9 in [14]; 16.6 in [15]; 3.9 in assay [16]; 186 in assay [17]; 1 in [18]; 80.4 in assay [19]. Also, the S/N ratio in [20] came to 0.9; in assay [21], 1.1; in assay [22], 37.3; in [23] it was 1.2; in assay [24], 140; in [25], 8.1. The S/N ratio in assay [26] stood at 1.8; in assay [27], 92.2; in assay [28], 1; in [29] it was 2.3.
